Key:
[1] = biological target: T1, hemagglutinin (HA) of Influenza virus A/PR/8/34 (H1N1) (Influenza virus A/PR/8/34 (H1N1), UniProt P03452 18-565); assay: flow cytometry, IV-infected vs uninfected 1106mel cells
T1 construct: whole, on cells; On IV-infected 1106mel cells; also called IV HA; viral HA

[2] = biological target: T2, hemagglutinin-neuraminidase (HN) glycoprotein of Sendai virus (Sendai virus); assay: flow cytometry, SV-infected vs uninfected 721.221 cells
T2 construct: whole, on cells; also called SV HN; Sendai HN

[3] = biological target: T2, hemagglutinin-neuraminidase (HN) …; assay: flow cytometry, 293T cells transfected with Sendai HN cDNA vs mock
[4] = biological target: T1, hemagglutinin (HA) of Influenza virus …; assay: flow cytometry on IV-infected 1106mel cells (FIG. 11)
[5] = biological target: T1, hemagglutinin (HA) of Influenza virus …; assay: flow cytometry on IV-infected vs uninfected 1106mel cells

T2 sequence (P19758 whole entry): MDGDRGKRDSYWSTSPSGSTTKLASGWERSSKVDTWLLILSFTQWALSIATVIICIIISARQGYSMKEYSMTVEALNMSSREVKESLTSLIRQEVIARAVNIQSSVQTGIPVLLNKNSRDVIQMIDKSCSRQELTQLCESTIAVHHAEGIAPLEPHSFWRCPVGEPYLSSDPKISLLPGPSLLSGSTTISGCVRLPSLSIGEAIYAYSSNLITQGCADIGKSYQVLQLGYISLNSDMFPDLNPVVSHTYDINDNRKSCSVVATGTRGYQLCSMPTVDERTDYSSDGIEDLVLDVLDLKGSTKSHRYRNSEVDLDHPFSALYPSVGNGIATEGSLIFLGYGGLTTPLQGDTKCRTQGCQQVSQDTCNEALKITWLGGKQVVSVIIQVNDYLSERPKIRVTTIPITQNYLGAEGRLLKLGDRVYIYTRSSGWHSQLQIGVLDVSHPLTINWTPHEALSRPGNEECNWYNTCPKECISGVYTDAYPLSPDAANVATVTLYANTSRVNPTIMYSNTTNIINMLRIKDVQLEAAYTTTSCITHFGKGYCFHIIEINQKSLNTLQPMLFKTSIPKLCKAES

Binder | fold increase in staining on SV infection [2] [fold] | binding result [5] | other results
NKp44-Ig fusion protein (Fc fusion, sialylated oligosaccharides (binding to HA depends on them), Made in COS-7, purified on protein G) QSKAQVLQSVAGQTLTVRCQYPPTGSLYEKKGWCKEASALVCIRLVTSSKPRTMAWTSRFTIWDDPDAGFFTVTMTDLREEDSGHYWCRIYRPSDNSVSKSVRFYLVVSPASASTQTPWTPRDLVSSQTQTQSCVPPTAGARQAPESPSTIPVPSQPQNSTLRPGPAAPDPEPKSSDKTHTCPPCPAPEFEGAPSVFLFPPKPKDTLMISRTPEVTCVVVDVSHEDPEVKFNWYVDGVEVHNAKTKPREEQYNSTYRVVSVLTVLHQDWLNGKEYKCKVSNKALPAPIEKTISKAKGQPREPQVYTLPPSRDELTKNQVSLTCLVKGFYPSDIAVEWESNGQPENNYKTTPPVLDSDGSFFLYSKLTVDKSRWQQGNVFSCSVMHEALHNHYTQKSLSLSPGK | 10 | – | fold increase in staining on IV infection [1]: ~4 fold; fold increase in staining on HN transfection [3]: 2 fold
NKp46D1-Ig fusion protein (Fc fusion, Junction between domain and Fc not described) QQQTLPKPFIWAEPHFMVPKEKQVTICCQGNYGAVEYQLHFEGSLFAVDRPKPPERINKVKFYIPDMNSRMAGQYSCIYRVGELWSEPSNLLDLVVTEMDPEPKSSDKTHTCPPCPAPEFEGAPSVFLFPPKPKDTLMISRTPEVTCVVVDVSHEDPEVKFNWYVDGVEVHNAKTKPREEQYNSTYRVVSVLTVLHQDWLNGKEYKCKVSNKALPAPIEKTISKAKGQPREPQVYTLPPSRDELTKNQVSLTCLVKGFYPSDIAVEWESNGQPENNYKTTPPVLDSDGSFFLYSKLTVDKSRWQQGNVFSCSVMHEALHNHYTQKSLSLSPGK | – | – | binding result [4]: no binding
KIR-1-Ig fusion protein (Fc fusion, extracellular domain; not shown: Fc portion of human IgG1) HEGVHRKPSLLAHPGRLVKSEETVILQCWSDVMFEHFLLHREGMFNDTLRLIGEHHDGVSKANFSISRMTQDLAGTYRCYGSVTHSPYQVSAPSDPLDIVIIGLYEKPSLSAQLGPTVLAGENVTLSCSSRSSYDMYHLSREGEAHERRLPAGPKVNGTFQADFPLGPATHGGTYRCFGSFHDSPYEWSKSSDPLLVSVTGNPSNSWPSPTEPSSKTGNPRHLH | – | no binding | –
NKp46D2-Ig fusion protein (Fc fusion, sialic acid residues (binding depends on them), Junction and leader used for secretion not described) YDTPTLSVHPGPEVISGEKVTFYCRLDTATSMFLLLKEGRSSHVQRGYGKVQAEFPLGPVTTAHRGTYRCFGSYNNHAWSFPSEPVKLLVTGDIENTSLAPEDPTFPADTWGTYLLTTETGLQKDHALWDHTAQDPEPKSSDKTHTCPPCPAPEFEGAPSVFLFPPKPKDTLMISRTPEVTCVVVDVSHEDPEVKFNWYVDGVEVHNAKTKPREEQYNSTYRVVSVLTVLHQDWLNGKEYKCKVSNKALPAPIEKTISKAKGQPREPQVYTLPPSRDELTKNQVSLTCLVKGFYPSDIAVEWESNGQPENNYKTTPPVLDSDGSFFLYSKLTVDKSRWQQGNVFSCSVMHEALHNHYTQKSLSLSPGK | ~10 | – | –
NKp30-Ig fusion protein (Fc fusion) LWVSQPPEIRTLEGSSAFLPCSFNASQGRLAIGSVTWFRDEVVPGKEVRNGTPEFRGRLAPLASSRFLHDHQAELHIRDVRGHDASIYVCRVEVLGLGVGTGNGTRLVVEKEHPQLGDPEPKSSDKTHTCPPCPAPEFEGAPSVFLFPPKPKDTLMISRTPEVTCVVVDVSHEDPEVKFNWYVDGVEVHNAKTKPREEQYNSTYRVVSVLTVLHQDWLNGKEYKCKVSNKALPAPIEKTISKAKGQPREPQVYTLPPSRDELTKNQVSLTCLVKGFYPSDIAVEWESNGQPENNYKTTPPVLDSDGSFFLYSKLTVDKSRWQQGNVFSCSVMHEALHNHYTQKSLSLSPGK | – | no binding | –
NKAT-8-Ig fusion protein (Fc fusion, extracellular domain; not shown: Fc portion of human IgG1) QEGVHRKPSFLALPGHLVKSEETVILQCWSDVMFEHFLLHREGKFNNTLHLIGEHHDGVSKANFSIGPMMPVLAGTYRCYGSVPHSPYQLSAPSDPLDMVIIGLYEKPSLSAQPGPTVQAGENVTLSCSSRSSYDMYHLSREGEAHERRLPAVRSINGTFQADFPLGPATHGGTYRCFGSFRDAPYEWSNSSDPLLVSVTGNPSNSWPSPTEPSSKTGNPRHLH | – | no binding | –

Reference: patent publication US20040072256A1 (published 2004)
